# Tested on: Escherichia coli TOP10
# Test: shrunken log2 fold change of peptide-encoding DNA abundance (4.5 h post-induction vs induction); higher = less antimicrobial activity (less host growth inhibition)
# Settings: time post-induction: 4.5 h; library: site-saturation at positions 5, 18, 19, 20
# 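Further: peptides expressed intracellularly from a pBAD plasmid library in pooled LB shake-flask culture, induced with 0.3% L-arabinose, DNA abundance read by NGS, three biological replicates, DESeq2 with apeglm shrinkage.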
row,Sequence,shrunken log2 fold change
1,RRIRRRPPRLPRPRPRPHDTPRP,-0.0817
2,RRIRYRPPRLPRPRPRPSTNPRP,-0.757
3,RRIRLRPPRLPRPRPRPRCRPRP,0.434
4,RRIRHRPPRLPRPRPRPGILPRP,-0.111
5,RRIRNRPPRLPRPRPRPLSVPRP,-0.21
6,RRIRFRPPRLPRPRPRPDMYPRP,-0.00804
7,RRIRNRPPRLPRPRPRPMEFPRP,-0.136
8,RRIRMRPPRLPRPRPRPKQFPRP,0.255
9,RRIRVRPPRLPRPRPRPLDKPRP,0.0163
10,RRIRMRPPRLPRPRPRPECLPRP,1.6
11,RRIRRRPPRLPRPRPRPLTKPRP,0.132
12,RRIRMRPPRLPRPRPRPVYGPRP,-0.294
13,RRIRHRPPRLPRPRPRPIAKPRP,0.05
14,RRIRKRPPRLPRPRPRPRSCPRP,0.239
15,RRIRNRPPRLPRPRPRPFKDPRP,-0.327
16,RRIRVRPPRLPRPRPRPWLAPRP,0.232
17,RRIRQRPPRLPRPRPRPYIKPRP,-1.38
18,RRIRCRPPRLPRPRPRPSKEPRP,0.0893
19,RRIRPRPPRLPRPRPRPREFPRP,0.485
20,RRIRVRPPRLPRPRPRPMMMPRP,-0.0802
21,RRIRVRPPRLPRPRPRPCVIPRP,-0.0142
22,RRIRPRPPRLPRPRPRPVWWPRP,0.232

row,Sequence,shrunken log2 fold change
1,RRIRYRPPRLPRPRPRPRRAPRP,0.364
2,RRIRCRPPRLPRPRPRPLHVPRP,-0.178
3,RRIRSRPPRLPRPRPRPQWTPRP,-0.0105
4,RRIRSRPPRLPRPRPRPRPIPRP,-0.0533
5,RRIRWRPPRLPRPRPRPHENPRP,0.0568
6,RRIRCRPPRLPRPRPRPDTRPRP,-0.0118
7,RRIRNRPPRLPRPRPRPKQQPRP,0.163
8,RRIRKRPPRLPRPRPRPGQAPRP,0.383
9,RRIRERPPRLPRPRPRPKLYPRP,-0.432
10,RRIRIRPPRLPRPRPRPSQFPRP,-0.604
11,RRIRYRPPRLPRPRPRPPEDPRP,-0.145
12,RRIRNRPPRLPRPRPRPKHFPRP,0.054
13,RRIRGRPPRLPRPRPRPGGYPRP,0.505
14,RRIRTRPPRLPRPRPRPFIGPRP,-0.353
15,RRIRLRPPRLPRPRPRPPISPRP,0.0176
16,RRIRLRPPRLPRPRPRPIMSPRP,-0.2
17,RRIRCRPPRLPRPRPRPQIDPRP,-0.0788
18,RRIRVRPPRLPRPRPRPLGYPRP,-0.0838
19,RRIRMRPPRLPRPRPRPQDMPRP,-0.0638
20,RRIRWRPPRLPRPRPRPCTPPRP,-0.0412
21,RRIRARPPRLPRPRPRPLVQPRP,0.561
22,RRIRFRPPRLPRPRPRPGWWPRP,-0.0573

row,Sequence,shrunken log2 fold change
1,RRIRFRPPRLPRPRPRPTGWPRP,0.456
2,RRIRCRPPRLPRPRPRPTMCPRP,-0.755
3,RRIRVRPPRLPRPRPRPYETPRP,0.0231
4,RRIRSRPPRLPRPRPRPTHDPRP,0.221
5,RRIRFRPPRLPRPRPRPRSIPRP,-0.256
6,RRIRFRPPRLPRPRPRPTLDPRP,0.0939
7,RRIRQRPPRLPRPRPRPCTNPRP,-0.359
8,RRIRARPPRLPRPRPRPYYSPRP,-0.173
9,RRIRQRPPRLPRPRPRPYHDPRP,0.015
10,RRIRFRPPRLPRPRPRPRFYPRP,-0.0297
11,RRIRERPPRLPRPRPRPGLNPRP,0.127
12,RRIRNRPPRLPRPRPRPSMYPRP,-0.309
13,RRIRPRPPRLPRPRPRPISEPRP,-0.303
14,RRIRSRPPRLPRPRPRPCVLPRP,-0.247
15,RRIRFRPPRLPRPRPRPPDTPRP,0.254
16,RRIRSRPPRLPRPRPRPCEVPRP,-0.333
17,RRIRPRPPRLPRPRPRPFPLPRP,-0.332
18,RRIRRRPPRLPRPRPRPKDSPRP,0.191
19,RRIRIRPPRLPRPRPRPDWQPRP,-0.00422
20,RRIRWRPPRLPRPRPRPFSIPRP,-0.228
21,RRIRERPPRLPRPRPRPWINPRP,-0.637
22,RRIRGRPPRLPRPRPRPQTVPRP,0.19

row,Sequence,shrunken log2 fold change
1,RRIRRRPPRLPRPRPRPYDEPRP,-0.302
2,RRIRNRPPRLPRPRPRPQFSPRP,-0.306
3,RRIRDRPPRLPRPRPRPIICPRP,-0.0435
4,RRIRIRPPRLPRPRPRPEMTPRP,0.104
5,RRIRERPPRLPRPRPRPIHKPRP,-0.424
6,RRIRKRPPRLPRPRPRPIPHPRP,0.359
7,RRIRSRPPRLPRPRPRPDLLPRP,-0.0424
8,RRIRWRPPRLPRPRPRPVSSPRP,0.117
9,RRIRYRPPRLPRPRPRPGKPPRP,-0.0225
10,RRIRFRPPRLPRPRPRPVGDPRP,0.535
11,RRIRPRPPRLPRPRPRPYEAPRP,-0.282
12,RRIRARPPRLPRPRPRPFSGPRP,-0.00374
13,RRIRERPPRLPRPRPRPVGVPRP,0.0502
14,RRIRNRPPRLPRPRPRPQSAPRP,-0.073
15,RRIRGRPPRLPRPRPRPSRQPRP,0.133
16,RRIRGRPPRLPRPRPRPTLTPRP,1.1
17,RRIRFRPPRLPRPRPRPCRRPRP,0.122
18,RRIRDRPPRLPRPRPRPCLHPRP,0.0931
19,RRIRQRPPRLPRPRPRPTMKPRP,-0.314
20,RRIRHRPPRLPRPRPRPLRAPRP,0.513
21,RRIRCRPPRLPRPRPRPAWQPRP,0.359
22,RRIRQRPPRLPRPRPRPETTPRP,0.0178

row,Sequence,shrunken log2 fold change
1,RRIRNRPPRLPRPRPRPNNMPRP,-0.278
2,RRIRLRPPRLPRPRPRPRMDPRP,-0.106
3,RRIRNRPPRLPRPRPRPRFYPRP,-0.201
4,RRIRKRPPRLPRPRPRPFGLPRP,-0.0305
5,RRIRQRPPRLPRPRPRPAHRPRP,0.151
6,RRIRQRPPRLPRPRPRPNLAPRP,0.281
7,RRIRARPPRLPRPRPRPAMKPRP,0.0417
8,RRIRERPPRLPRPRPRPCAWPRP,-0.0536
9,RRIRYRPPRLPRPRPRPGFEPRP,-0.127
10,RRIRDRPPRLPRPRPRPPFDPRP,0.422
11,RRIRKRPPRLPRPRPRPASGPRP,0.591
12,RRIRTRPPRLPRPRPRPVVYPRP,-0.418
13,RRIRKRPPRLPRPRPRPINMPRP,-0.196
14,RRIRTRPPRLPRPRPRPALDPRP,0.196
15,RRIRERPPRLPRPRPRPETLPRP,-0.0176
16,RRIRSRPPRLPRPRPRPLDLPRP,-0.154
17,RRIRSRPPRLPRPRPRPTWWPRP,0.422
18,RRIRFRPPRLPRPRPRPYNGPRP,-1.47
19,RRIRMRPPRLPRPRPRPHLAPRP,1.6
20,RRIRFRPPRLPRPRPRPQHRPRP,-0.0907
21,RRIRSRPPRLPRPRPRPVGFPRP,0.334

# From the supplement of paper PMC9112550, “Optimization of the antimicrobial peptide Bac7 by deep mutational scanning” (BMC Biology, 2022)
